Reference: the supplement of paper PMC9170038

Test system: MS2 coat protein
Experiment: apparent KD of MS2 coat protein; designed switch direction (-1 OFF switch, 1 ON switch): -1; higher = weaker reporter binding
In short: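 Three titration conditions were used: no input, 200 uM small-molecule ligand, and an oligonucleotide input. In each, SNAP-549-labelled MS2 coat protein was raised from 0.7 or 1.5 nM, doubling, to 3 µM over designed RNA switches transcribed on Illumina chips by stalled E. coli RNA polymerase. Curve fits of normalised cluster fluorescence gave values whose per-design median over clusters is the apparent KD.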

[1] = input ligand: microRNA oligo, concentration not stated
[2] = Eterna round: R95, input ligand: microRNA oligo, concentration not stated
[3] = Eterna round: R95, input ligand: FMN 200 uM
[4] = Eterna round: R95, input ligand: none

Row | Sequence | apparent KD of MS2 coat protein (input ligand: FMN 200 uM) | apparent KD of MS2 coat protein (input ligand: none) | apparent KD of MS2 coat protein [1] | apparent KD of MS2 coat protein [2] | apparent KD of MS2 coat protein [3] | apparent KD of MS2 coat protein [4]
1 | AUUUUGUGAGGAUAUGUGGCUUCGAUCGUAAAAACGAGGCUACAGAAGGCACAUGAGGAUCACCCAUGUUCCUA [salish99_ex4_r4_119] (Eterna round: R97, puzzle: Exclusion 4) | 0.194 µM | 0.024 µM | – | – | – | –
2 | UAUAUAUAGUAAGGAUAUGUAUUAAUCUUAUAAACAGAAGGUACUGACAUGAGGAUCACCCAUGUUUUAGUGUGGGCAUGUAGA [JMF's solution 79] (Eterna round: R96, puzzle: Exclusion NG 1) | – | – | 0.0548 µM | – | – | –
3 | AGAGUGCUGCGAGGAUAUACAUGAGGAUCACCCAUGUGGAUCUGUGAGGCUUUGCCUCACAGGAUGUAGAAGGCGCAGUACUCA [Mat - Exclusion NG 2 - Mod of JL - D48] (Eterna round: R96, puzzle: Exclusion NG 2) | 0.178 µM | 0.0254 µM | 0.0182 µM | – | – | –
4 | UGUACUAACACGAUAGUGUUAGUACUAUAAGCUUGUGUUACAUGAGGAUCACCCAUGUCCUCAUAAGCUCGUCUUGA [Mat - Sensor v3 - Turn-off var 2 - D93] (Eterna round: R96, puzzle: Sensor v3, turn-off variant 2) | 0.0368 µM | 0.0389 µM | 0.472 µM | – | – | –
5 | GCCGAAAGUGUGAGGAUAUACCUAUGGAUACAUAGGUAGAAGGCACAUGAGGAUCACCCAUGUGGGAAAACGGC [Eli bmx4 4.30] (Eterna round: R97, puzzle: Brourd's mod of Exclusion 4) | 1.14 µM | 0.19 µM | – | – | – | –
6 | AGCGAGGCAGGAUAUACAUGAGGAUCACCCAUGUGCUUGUAUGGCGUGGAACAUCGUAGUAGAAGGGCCGCGCC [EX3 #77] (Eterna round: R97, puzzle: Exclusion 3) | 0.0284 µM | 0.0222 µM | – | – | – | –
7 | CUUAUGUCAGGAUAUGCCUGGCCGUGAGGCCAAAUUGAAUAGCAGAAGGGACAUGAGGAUCACCCAUGUCCGGG [jl-ex4-4.64 ViennaUCT mod] (Eterna round: R97, puzzle: Exclusion 4) | 0.115 µM | 0.13 µM | – | – | – | –
8 | GCACGGAGUGUAGGAUAUCUGUGCGAUUAGCUCAGAGAAGGACACAUGAGGAUCACCCAUGUGUUCCAGCGAAAGCUUCCGUGC [Eli exng1 - 047] (Eterna round: R96, puzzle: Exclusion NG 1) | 0.00815 µM | 0.0106 µM | 0.00932 µM | – | – | –
9 | UCACCGCAAGGAUAUACUUGCGGUGAUGUUCGAAAUCUUCUACUUGAGGAUCACCCAAGUAGAAGGUGCGGUGA [jl-ex2.4.66 ViennaUCT mod] (Eterna round: R97, puzzle: Exclusion 2) | 0.0143 µM | 0.0128 µM | – | – | – | –
10 | CUCAUGUGAGGAUAUGUGAUCAACCUUCUGUAUAGAUGAUGACAGAAGGCACAUGAGGAUCACCCAUGUAGAUC [Ex4 - 3 - 18] (puzzle: Exclusion 4) | – | – | – | 0.0467 µM | – | –
11 | GAUUAACAUGAGGAUCACCCAUGUGAGGAUAUGGAAUGGCUCAUUGUUUGAUUCCCGUCUAGAAGGCACAUCUU [1986#7] (Eterna round: R97, puzzle: Exclusion 1) | 0.15 µM | 0.116 µM | – | – | – | –
12 | GUCAGCUCGUGAGGAUAUACAUCACUGCUUCGGCAGUGUAUUAAGAUCACAUGAGGAUCACCCAUGUAGAAGGUACGAGCUGAU [ENG2/2-C2] (Eterna round: R96, puzzle: Exclusion NG 2) | 0.214 µM | 0.0269 µM | 0.0176 µM | – | – | –
13 | UGUGCGUAUGUGAGGAUAUGCUGGUCCUUGGAUCAGCAGAAGGCACAUGAGGAUCACCCAUGUGGUGUCGUACG [salish99_Bmod_Ex4_008] (puzzle: Brourd's mod of Exclusion 4) | – | – | – | 0.0969 µM | – | –
14 | GUAUAACAUGUAGGAUAUGCAUGGCGAAGCUAUGCAGAAGGACAUGAGGAUCACCCAUGUAAUAGCGUCUGCGUACAGAUGCAA [Mat - Exclusion NG 1 - Mod of JL - D91] (Eterna round: R96, puzzle: Exclusion NG 1) | 0.186 µM | 0.0387 µM | 0.0294 µM | – | – | –
15 | CCCGCACGAGUUAGGAUAUCAUUUGUCGAGAUAGGUGAGAAGGAACUUGAGGAUCACCCAAGUGUCCCGGGAAA [Maquso] (Eterna round: R97, puzzle: Brourd's mod of Exclusion 4) | 0.0375 µM | 0.0201 µM | – | – | – | –
16 | ACAAGCAUUUAUCUUUUCAAAUAUUAUCGUCUUAUAAUUACAUGAGGAUCACCCAUGUAUAGAGGGUGAGAGAUACU [JR_Sensorv2_tov2_Sub552] (Eterna round: R96, puzzle: Sensor v2, turn-off variant 2) | 0.0611 µM | 0.0581 µM | 0.121 µM | – | – | –
17 | UUUUUUGUUGUGAGGAUAUCGUUUUUGUUUUGGAUCGAGAAGGCACAUGAGGAUCACCCAUGUUUGUUGUGGUU [JR_BMOE4_Sub087] (puzzle: Brourd's mod of Exclusion 4) | – | – | – | 0.0783 µM | – | –

Row | Sequence | apparent KD of MS2 coat protein (input ligand: FMN 200 uM) | apparent KD of MS2 coat protein (input ligand: none) | apparent KD of MS2 coat protein [1] | apparent KD of MS2 coat protein [2] | apparent KD of MS2 coat protein [3] | apparent KD of MS2 coat protein [4]
18 | GCGACUGGAGGAUAUACAUGAGGAUCACCCAUGUGAUCUAAAAGGGUCUUAUGCCGGUGUAGAAGGCCGAGCAG [Eternabot (L2) Solution 84] (Eterna round: R97, puzzle: Exclusion 3) | 0.0267 µM | 0.0273 µM | – | – | – | –
19 | AUAGGAGUAGGAUAUUCAGUUCGACACAUGAGGAUCACCCAUGUCGCUGUGGCCGGGCACGGAGAAGGAUUGUUGU [Eternabot (L1) Solution 15] (Eterna round: R97, puzzle: Exclusion 5) | 0.0391 µM | 0.0363 µM | – | – | – | –
20 | UACUUCUGAGGAUAUACAUGAGGAUCACCCAUGUUGAUACCGACCUAAAGUCCAUUACGUAGAAGGCAGCAGUG [Eternabot (L1) Solution 91] (Eterna round: R97, puzzle: Exclusion 3) | 0.0354 µM | 0.0236 µM | – | – | – | –
21 | CUAAUUCGAGGAUAUGCAAUGGAGUCUUUAAUAUAGUUCUCACAUGAGGAUCACCCAUGUAGAAGGCGAGCGGG [Eternabot (L1) Solution 50] (Eterna round: R97, puzzle: Exclusion 2) | 0.115 µM | 0.0531 µM | – | – | – | –
22 | GCCAUGUCAGGAUAUGCUUCAAAGCACGUACAGAGCUUGAAGUAGAAGGGACAUGAGGAUCACCCAUGUGCCUA [Eternabot (L1) Solution 80] (Eterna round: R97, puzzle: Exclusion 4) | 0.0402 µM | 0.02 µM | – | – | – | –
23 | GCGGACAAGAUGGCGACAUCAGAGACAUGAGGAUCACCCAUGUAGGAUAUCGAUUCGAAACGAAUCGAGAAGGGCAUAGUCCGC [JL denovo 34] (Eterna round: R96, puzzle: Exclusion NG 3) | 0.0147 µM | 0.0167 µM | 0.0103 µM | – | – | –
24 | CUCGUGCAGCAAAGCUGUACGAGUACAUGAGGAUCACCCAUGUAGGAUAUGGUACGCAAAGCGUGCUAGAAGGAUAUGUGUAGG [Mat - Exclusion NG 3 - Mod of JL - D87] (Eterna round: R96, puzzle: Exclusion NG 3) | 0.0615 µM | 0.0505 µM | 0.0327 µM | – | – | –
25 | CCGAGGUAGCGGUCCUAUGACAUGAGGAUCACCCAUGUACCUCGCUACGAGCUUUUUGCUCAUCUUAUAAUUCUCGG [Atriat] (puzzle: Sensor v3, turn-off variant 1) | – | – | – | 0.0261 µM | 0.0209 µM | 0.0192 µM
26 | UGUUGUUACGCAGGAUAUGAGGAUCACCCAUAUCAGGAUAUCGAAAGAGAACUUCUGAGGAUCACCCAGAAGGGCGGGUUAACA [pwkr exNG2 2xF5 2xFMN.38] (Eterna round: R96, puzzle: Exclusion NG 2) | 0.0169 µM | 0.0212 µM | 0.0136 µM | – | – | –
27 | GUGUAGAUAGGAUAUACGAGAGUCUAGCGAAGCUAGAUUCUACAUGAGGAUCACCCAUGUAGAAGGGUCUACAC [Fiskers Ex 2 - 30] (puzzle: Exclusion 2) | – | – | – | 0.0142 µM | – | –
28 | AAAUUGUCAGGAUAUUGUUAGUUUAGUUGUUUGUAUUAGUUCGAGAAGGGACAUGAGGAUCACCCAUGUGAAAA [Ex4 #69] (Eterna round: R97, puzzle: Exclusion 4) | 0.0383 µM | 0.0415 µM | – | – | – | –
29 | AGGAGUGAAGGAUAUACAUGAGGAUCACCCAUGUGGGAGGAAAGAGGUGAUGGAGAUAGUAGAAGGUCAGGAUG [JR_Exclusion3_Sub005] (puzzle: Exclusion 3) | – | – | – | 0.0939 µM | 0.0999 µM | 0.116 µM
30 | ACAAGCUUGUAAUGAUUGAACAUGAGGAUCACCCAUGUAAAUGGAAGAACCAAUUUGAUAAGAUAAACUCGUCUUAU [JR_STOV1_Sub005] (Eterna round: R97, puzzle: Sensor, turn-off variant 1) | 0.0569 µM | 0.0557 µM | – | – | – | –
31 | UUUUGGCAUGUAGGAUAUGGGUCCGAUUAGGAUUUAGAAGGACAUGAGGAUCACCCAUGUGCAUUUAAUUGGUCUUUACCUUUU [EXclNG1-LROPPY12] (Eterna round: R96, puzzle: Exclusion NG 1) | 0.13 µM | 0.0825 µM | 0.0821 µM | – | – | –
32 | UUUUUGUGAGGAUAUGGAAUAUCUUCUAUUUAUUAUUAAUUCCAGAAGGCACAUGAGGAUCACCCAUGUAUUUU [Ex4 - 3 - 35] (puzzle: Exclusion 4) | – | – | – | 0.0207 µM | – | –
33 | CCACUGUCAGGAUAUCGUGCAUAACGUUAACAAUUUAUGUGCGAGAAGGGACAUGAGGAUCACCCAUGUAAACG [Omei Ex4 A28PK4] (Eterna round: R97, puzzle: Exclusion 4) | 0.233 µM | 0.166 µM | – | – | – | –
